2 molecules from publication PMC7543661, “The crystal structure of the tetrameric human vasohibin-1–SVBP complex reveals a variable arm region within the structural core” (Acta Crystallographica. Section D, Structural Biology, 2020) can be followed below.

Sequences and labels used below:
B1: human small vasohibin-binding protein (SVBP) (amino acids 2–66) (natural protein, UniProt Q8N300 2-66, looked up)
chain: DPPARKEKTKVKESVSRVEKAKQKSAQQELKQRQRAEIYALNRVMTELEQQQFDEFCKQMQPPGE
notes: the final model holds amino acids 26-53 (chain B); Expressed at the C-terminal end of the fusion MBP-His6-5xTEV-VASH1(56-310)-2xTEV-SVBP(2-66) and set free by TEV protease; Residues of the TEV site may be left at its N-terminus; source: E. coli One Shot BL21 Star (DE3) pLysS, purified (HisTrap FF, SP Sepharose, TEV cleavage, SP Sepharose, Superdex 200)
B2: human VASH1 core (VASH1c) region (amino acids 56–310) (domain or fragment)
chain: not shown
notes: vasohibin-1 (VASH1), human, core region, amino acids 56-310; the final model holds amino acids 56-304 (chain A); cut with TEV protease before crystallisation; Residues of the TEV sites may be left at the ends; also called vasohibin-1; source: E. coli One Shot BL21 Star (DE3) pLysS, purified (HisTrap FF, SP Sepharose, TEV cleavage, SP Sepharose, Superdex 200); not shown: MBP, N-terminal, cleaved; …

Data set [1] concerns the target B2. The data set can be described thus: crystal structure; purified VASH1c–SVBP complex (17.7 mg/ml), sitting-drop vapor diffusion at 20°C, 0.16 M ammonium sulfate, 0.08 M sodium acetate pH 4.6, 20% PEG 4000, 20% glycerol; space group P6(1)22, 2.3 Å; heterotetramer formed by a crystallographic twofold axis. Particulars: both partners purified.
Data set [2] concerns the molecule itself. The data set is described as above.

For B1, the binding result in data set [1] is listed as “binds”. With B2, the binding result in data set [2] is “binds”.
